Assay results taken from patent US20200190192A1.
Blank lines part the entries; values can stand above or below the binder they belong to.

Target: cynomolgus PD-1 expressed on CHO cells (cynomolgus monkey)
Test: cPD-1 binding titration (format not named; taken as cell binding)

Bmax: 2960 | Kd: 0.3 nM
B1: 1353-G10 H1 HC IgG (antibody, V domains shown)
VH: EVQLVQSGAEVKKPGASVKVSCKASGYTFDSYGISWVRQAPGQGLEWMGWISAYNGNTNYAQKLQGRVTMTTDTSTNTAYMELRSLRSDDTAVYYCARDVDYGTGSGYWGQGTLVTVSS
VL: SYELTQPPSVSVSPGQTARITCSGDALPKQYAYWYQQKPGQAPVMVIYKDTERPSGIPERFSGSSSGTKVTLTISGVQAEDEADYYCQSADNSITYRVFGGGTKVTVL

Bmax: 2800 | Kd: 2.3 nM
B2: 1353-G10 H1/vk1-39 IgG (antibody, V domains shown)
VH: B1 VH
VL: DIQLTQSPSSLSASVGDRVTITCSGDALPKQYAYWYQQKPGKAPKLLIYKDTERPSGVPSRFSGSSSGTKVTLTISSLQPEDFATYYCQSADNSITYRVFGGGTKVEIK
